The target in the assay is COPI coat leaf (one coatomer complex with two Arf1 molecules) assembled on vesicle membranes (M. musculus | S. cerevisiae) (UniProt Q8CIE6). Put plainly: cryo-EM structure; COPI coated vesicles with GTPγS incubated 15–20 min with a 10 molar excess of ArfGAP2; subtomogram averaging, difference map and classification; class with ArfGAP2 at 10.1 Å.

The text below walks through data of PMC5482573.

Chain of R. norvegicus ArfGAP2, full-length, N-terminally His-tagged (Q3MID3 whole entry): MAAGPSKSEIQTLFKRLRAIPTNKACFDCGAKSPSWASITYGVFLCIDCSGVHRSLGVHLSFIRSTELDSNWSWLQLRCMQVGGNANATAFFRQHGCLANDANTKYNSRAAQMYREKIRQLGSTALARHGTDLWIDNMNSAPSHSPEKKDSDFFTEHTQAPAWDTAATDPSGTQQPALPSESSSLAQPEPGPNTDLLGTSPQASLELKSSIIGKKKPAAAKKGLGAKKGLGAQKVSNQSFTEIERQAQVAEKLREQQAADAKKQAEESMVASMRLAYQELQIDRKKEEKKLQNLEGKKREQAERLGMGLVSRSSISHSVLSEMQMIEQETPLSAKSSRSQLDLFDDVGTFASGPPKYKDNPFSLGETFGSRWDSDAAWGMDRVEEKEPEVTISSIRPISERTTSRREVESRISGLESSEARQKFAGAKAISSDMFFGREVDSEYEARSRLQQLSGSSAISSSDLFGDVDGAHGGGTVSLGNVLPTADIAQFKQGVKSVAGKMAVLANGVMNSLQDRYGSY

“R. norvegicus ArfGAP2, full-length, N-terminally His-tagged (from UniProt Q3MID3 1-520) (enzyme)” had a share of the leaves in the class with bound ArfGAP2 of 65%.
